Source: paper PMC9251408 (2022)
One block for each binder: values may come before it.

Tests used:
IL-10 receptor alpha [1] = molecular target: T1, IL-10 receptor alpha (Homo sapiens, UniProt Q13651)
T1 chain: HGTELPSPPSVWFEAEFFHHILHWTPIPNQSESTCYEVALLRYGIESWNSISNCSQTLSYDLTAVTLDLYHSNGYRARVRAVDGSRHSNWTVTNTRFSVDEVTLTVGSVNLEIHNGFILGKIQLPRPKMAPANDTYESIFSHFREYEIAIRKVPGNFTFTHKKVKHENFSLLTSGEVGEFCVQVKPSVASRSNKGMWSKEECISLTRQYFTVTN

IL-10 receptor alpha [2] = molecular target: T2, IL-10 receptor alpha (Mus musculus, UniProt Q61727)
T2 chain: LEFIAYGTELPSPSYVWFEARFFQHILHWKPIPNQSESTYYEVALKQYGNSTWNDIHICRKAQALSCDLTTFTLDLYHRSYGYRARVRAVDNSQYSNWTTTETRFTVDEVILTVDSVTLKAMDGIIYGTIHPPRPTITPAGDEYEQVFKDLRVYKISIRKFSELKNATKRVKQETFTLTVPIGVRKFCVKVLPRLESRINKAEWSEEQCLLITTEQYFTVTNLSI

Kd (IL-10 receptor alpha [1]): 0.6 nM
Kd (IL-10 receptor alpha [2]): 2.9 nM
B1: hFc-hIL-10 (human IL-10 human Fc-fusion) (protein)
chain: SPGQGTQSENSCTHFPGNLPNMLRDLRDAFSRVKTFFQMKDQLDNLLLKESLLEDFKGYLGCQALSEMIQFYLEEVMPQAENQDPDIKAHVNSLGENLKTLRLRLRRCHRFLPCENKSKAVEQVKNAFNKLQEKGIYKAMSEFDIFINYIEAYMTMKIRN
modifications: IL-10 fused to C-terminus of effector-reduced human Fc via Gly-Ser linker

Kd (IL-10 receptor alpha [2]): 3.2 nM
B2: mFc-mIL-10 (mouse IL-10 mouse Fc-fusion) (protein)
chain: SRGQYSREDNNCTHFPVGQSHMLLELRTAFSQVKTFFQTKDQLDNILLTDSLMQDFKGYLGCQALSEMIQFYLVEVMPQAEKHGPEIKEHLNSLGEKLKTLRMRLRRCHRFLPCENKSKAVEQVKSDFNKLQDQGVYKAMNEFDIFINCIEAYMMIKMKS
modifications: IL-10 fused to C-terminus of effector-reduced mouse Fc via Gly-Ser linker
